According to US20220204580A1 (AstraZeneca / MedImmune, published 2022):
Values belong to the binder of their own block, whether it stands above or below them. Numbered stars: 1 amine (or outer) side, 2 acyl side, 3 side chain; on linkers, the order of the positions; unused ones are H or OH. Bridge positions count the residues as written; N and C are the ends. Square brackets hold non-standard residues; d marks the D form. Side chains are listed from the residue outwards. Ends that are not written are not given here. * marks the point of attachment. C18 diacid = O=C(O)CCCCCCCCCCCCCCCCC(=O)*; γGlu = O=C(O)[C@H](CCC(=O)[*:2])N[*:1]; Aib = CC(C)(N)C(=O)O

Assays:
[1] = biological target: T1, human amylin receptor (calcitonin receptor co-expressed with receptor activity modifying protein, RAMP3) (human, UniProt P30988 25-474; O60896 24-148); assay: cell-based or functional assay
T1 sequence (looked up) 1: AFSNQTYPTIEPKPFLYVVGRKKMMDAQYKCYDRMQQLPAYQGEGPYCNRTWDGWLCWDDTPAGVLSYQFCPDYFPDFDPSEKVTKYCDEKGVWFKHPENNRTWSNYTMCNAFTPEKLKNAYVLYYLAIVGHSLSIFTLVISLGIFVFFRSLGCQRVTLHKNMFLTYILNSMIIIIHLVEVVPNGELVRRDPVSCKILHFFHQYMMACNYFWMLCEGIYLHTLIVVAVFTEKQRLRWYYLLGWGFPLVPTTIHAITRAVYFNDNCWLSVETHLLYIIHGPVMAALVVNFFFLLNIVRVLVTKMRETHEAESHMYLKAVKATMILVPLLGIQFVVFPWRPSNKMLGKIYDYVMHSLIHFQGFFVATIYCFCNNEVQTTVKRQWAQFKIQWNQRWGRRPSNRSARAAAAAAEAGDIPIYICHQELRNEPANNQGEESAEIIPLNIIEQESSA
T1 sequence (looked up) 2: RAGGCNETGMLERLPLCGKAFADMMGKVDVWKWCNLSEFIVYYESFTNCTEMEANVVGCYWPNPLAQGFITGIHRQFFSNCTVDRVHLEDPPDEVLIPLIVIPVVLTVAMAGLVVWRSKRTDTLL

[2] = biological target: T2, human calcitonin receptor (human, UniProt P30988 25-474); assay: cell-based or functional assay
T2 sequence (looked up): T1 sequence (looked up) 1

- EC50 (cAMP production) [1]: 1.06 nM
- Ratio (EC50 hCTR / EC50 hAMYR3) [1]: 15
- EC50 (cAMP production) [2]: 15.6 nM
B1: Peptide 90 (SEQ ID NO: 90) (peptide)
peptide: K([γGlu-γGlu-C18 diacid])CNTATCATQRLANFLRHSS[Aib]NFGPILPPT[Aib]VGSNTY-NH2
modifications: disulfide 2-7; N-terminus assumed
SMILES: CC[C@H](C)[C@H](NC(=O)[C@@H]1CCCN1C(=O)CNC(=O)[C@H](Cc1ccccc1)NC(=O)[C@H](CC(N)=O)NC(=O)C(C)(C)NC(=O)[C@H](CO)NC(=O)[C@H](CO)NC(=O)[C@H](Cc1c[nH]cn1)NC(=O)[C@H](CCCNC(=N)N)NC(=O)[C@H](CC(C)C)NC(=O)[C@H](Cc1ccccc1)NC(=O)[C@H](CC(N)=O)NC(=O)[C@H](C)NC(=O)[C@H](CC(C)C)NC(=O)[C@H](CCCNC(=N)N)NC(=O)[C@H](CCC(N)=O)NC(=O)[C@@H](NC(=O)[C@H](C)NC(=O)[C@@H]1CSSC[C@H](NC(=O)[C@@H](N)CCCCNC(=O)CC[C@H](NC(=O)CC[C@H](NC(=O)CCCCCCCCCCCCCCCCC(=O)O)C(=O)O)C(=O)O)C(=O)N[C@@H](CC(N)=O)C(=O)N[C@@H]([C@@H](C)O)C(=O)N[C@@H](C)C(=O)N[C@@H]([C@@H](C)O)C(=O)N1)[C@@H](C)O)C(=O)N[C@@H](CC(C)C)C(=O)N1CCC[C@H]1C(=O)N1CCC[C@H]1C(=O)N[C@H](C(=O)NC(C)(C)C(=O)N[C@H](C(=O)NCC(=O)N[C@@H](CO)C(=O)N[C@@H](CC(N)=O)C(=O)N[C@H](C(=O)N[C@@H](Cc1ccc(O)cc1)C(N)=O)[C@@H](C)O)C(C)C)[C@@H](C)O

- EC50 (cAMP production) [1]: 0.322 nM
- Ratio (EC50 hCTR / EC50 hAMYR3) [1]: 6
- EC50 (cAMP production) [2]: 1.9 nM
B2: Peptide 94 (SEQ ID NO: 94) (peptide)
peptide: K([γGlu-C18 diacid])KCNTATCATQRLANFL[Aib]HSSNNFGP[Aib]LPPTNVGSNTY-NH2
modifications: disulfide 3-8; N-terminus assumed
SMILES: CC(C)C[C@H](NC(=O)[C@H](CCCNC(=N)N)NC(=O)[C@H](CCC(N)=O)NC(=O)[C@@H](NC(=O)[C@H](C)NC(=O)[C@@H]1CSSC[C@H](NC(=O)[C@H](CCCCN)NC(=O)[C@@H](N)CCCCNC(=O)CC[C@H](NC(=O)CCCCCCCCCCCCCCCCC(=O)O)C(=O)O)C(=O)N[C@@H](CC(N)=O)C(=O)N[C@@H]([C@@H](C)O)C(=O)N[C@@H](C)C(=O)N[C@@H]([C@@H](C)O)C(=O)N1)[C@@H](C)O)C(=O)N[C@@H](C)C(=O)N[C@@H](CC(N)=O)C(=O)N[C@@H](Cc1ccccc1)C(=O)N[C@@H](CC(C)C)C(=O)NC(C)(C)C(=O)N[C@@H](Cc1c[nH]cn1)C(=O)N[C@@H](CO)C(=O)N[C@@H](CO)C(=O)N[C@@H](CC(N)=O)C(=O)N[C@@H](CC(N)=O)C(=O)N[C@@H](Cc1ccccc1)C(=O)NCC(=O)N1CCC[C@H]1C(=O)NC(C)(C)C(=O)N[C@@H](CC(C)C)C(=O)N1CCC[C@H]1C(=O)N1CCC[C@H]1C(=O)N[C@H](C(=O)N[C@@H](CC(N)=O)C(=O)N[C@H](C(=O)NCC(=O)N[C@@H](CO)C(=O)N[C@@H](CC(N)=O)C(=O)N[C@H](C(=O)N[C@@H](Cc1ccc(O)cc1)C(N)=O)[C@@H](C)O)C(C)C)[C@@H](C)O

- EC50 (cAMP production) [1]: 0.447 nM
- Ratio (EC50 hCTR / EC50 hAMYR3) [1]: 18
- EC50 (cAMP production) [2]: 8.24 nM
Binder: K([γGlu-γGlu-C18 diacid])CNTATCATQRLANFLVHSS[Aib]NFGPILPPT[Aib]VGSNTY-NH2 (disulfide 2-7) [Peptide 89 (SEQ ID NO: 89)]

- EC50 (cAMP production) [1]: 0.2 nM
- Ratio (EC50 hCTR / EC50 hAMYR3) [1]: 12
- EC50 (cAMP production) [2]: 2.36 nM
B3: Peptide 91 (SEQ ID NO: 91) (peptide)
peptide: K([γGlu-γGlu-C18 diacid])CNTATCATQRLANFLVHSS[Aib]NFGPILPPTNVGS[Aib]TY-NH2
modifications: disulfide 2-7; N-terminus assumed
SMILES: CC[C@H](C)[C@H](NC(=O)[C@@H]1CCCN1C(=O)CNC(=O)[C@H](Cc1ccccc1)NC(=O)[C@H](CC(N)=O)NC(=O)C(C)(C)NC(=O)[C@H](CO)NC(=O)[C@H](CO)NC(=O)[C@H](Cc1c[nH]cn1)NC(=O)[C@@H](NC(=O)[C@H](CC(C)C)NC(=O)[C@H](Cc1ccccc1)NC(=O)[C@H](CC(N)=O)NC(=O)[C@H](C)NC(=O)[C@H](CC(C)C)NC(=O)[C@H](CCCNC(=N)N)NC(=O)[C@H](CCC(N)=O)NC(=O)[C@@H](NC(=O)[C@H](C)NC(=O)[C@@H]1CSSC[C@H](NC(=O)[C@@H](N)CCCCNC(=O)CC[C@H](NC(=O)CC[C@H](NC(=O)CCCCCCCCCCCCCCCCC(=O)O)C(=O)O)C(=O)O)C(=O)N[C@@H](CC(N)=O)C(=O)N[C@@H]([C@@H](C)O)C(=O)N[C@@H](C)C(=O)N[C@@H]([C@@H](C)O)C(=O)N1)[C@@H](C)O)C(C)C)C(=O)N[C@@H](CC(C)C)C(=O)N1CCC[C@H]1C(=O)N1CCC[C@H]1C(=O)N[C@H](C(=O)N[C@@H](CC(N)=O)C(=O)N[C@H](C(=O)NCC(=O)N[C@@H](CO)C(=O)NC(C)(C)C(=O)N[C@H](C(=O)N[C@@H](Cc1ccc(O)cc1)C(N)=O)[C@@H](C)O)C(C)C)[C@@H](C)O

- EC50 (cAMP production) [1]: 0.071 nM
- Ratio (EC50 hCTR / EC50 hAMYR3) [1]: 1
- EC50 (cAMP production) [2]: 0.074 nM
B4: Peptide 87 (SEQ ID NO: 87) (peptide)
peptide: K([γGlu-C18 diacid])KCNTATCATQRLANFL[Aib]HSS[Aib]NFGPILPPTNVGSNTP-NH2
modifications: disulfide 3-8; N-terminus assumed
SMILES: CC[C@H](C)[C@H](NC(=O)[C@@H]1CCCN1C(=O)CNC(=O)[C@H](Cc1ccccc1)NC(=O)[C@H](CC(N)=O)NC(=O)C(C)(C)NC(=O)[C@H](CO)NC(=O)[C@H](CO)NC(=O)[C@H](Cc1c[nH]cn1)NC(=O)C(C)(C)NC(=O)[C@H](CC(C)C)NC(=O)[C@H](Cc1ccccc1)NC(=O)[C@H](CC(N)=O)NC(=O)[C@H](C)NC(=O)[C@H](CC(C)C)NC(=O)[C@H](CCCNC(=N)N)NC(=O)[C@H](CCC(N)=O)NC(=O)[C@@H](NC(=O)[C@H](C)NC(=O)[C@@H]1CSSC[C@H](NC(=O)[C@H](CCCCN)NC(=O)[C@@H](N)CCCCNC(=O)CC[C@H](NC(=O)CCCCCCCCCCCCCCCCC(=O)O)C(=O)O)C(=O)N[C@@H](CC(N)=O)C(=O)N[C@@H]([C@@H](C)O)C(=O)N[C@@H](C)C(=O)N[C@@H]([C@@H](C)O)C(=O)N1)[C@@H](C)O)C(=O)N[C@@H](CC(C)C)C(=O)N1CCC[C@H]1C(=O)N1CCC[C@H]1C(=O)N[C@H](C(=O)N[C@@H](CC(N)=O)C(=O)N[C@H](C(=O)NCC(=O)N[C@@H](CO)C(=O)N[C@@H](CC(N)=O)C(=O)N[C@H](C(=O)N1CCC[C@H]1C(N)=O)[C@@H](C)O)C(C)C)[C@@H](C)O

- EC50 (cAMP production) [1]: 0.281 nM
- Ratio (EC50 hCTR / EC50 hAMYR3) [1]: 4
- EC50 (cAMP production) [2]: 1.17 nM
B5: Peptide 88 (SEQ ID NO: 88) (peptide)
peptide: K([γGlu-C18 diacid])KCNTATCATQRLANFLVHSS[Aib]NFGPIL[Aib]PTNVGSNTY-NH2
modifications: disulfide 3-8; N-terminus assumed
SMILES: CC[C@H](C)[C@H](NC(=O)[C@@H]1CCCN1C(=O)CNC(=O)[C@H](Cc1ccccc1)NC(=O)[C@H](CC(N)=O)NC(=O)C(C)(C)NC(=O)[C@H](CO)NC(=O)[C@H](CO)NC(=O)[C@H](Cc1c[nH]cn1)NC(=O)[C@@H](NC(=O)[C@H](CC(C)C)NC(=O)[C@H](Cc1ccccc1)NC(=O)[C@H](CC(N)=O)NC(=O)[C@H](C)NC(=O)[C@H](CC(C)C)NC(=O)[C@H](CCCNC(=N)N)NC(=O)[C@H](CCC(N)=O)NC(=O)[C@@H](NC(=O)[C@H](C)NC(=O)[C@@H]1CSSC[C@H](NC(=O)[C@H](CCCCN)NC(=O)[C@@H](N)CCCCNC(=O)CC[C@H](NC(=O)CCCCCCCCCCCCCCCCC(=O)O)C(=O)O)C(=O)N[C@@H](CC(N)=O)C(=O)N[C@@H]([C@@H](C)O)C(=O)N[C@@H](C)C(=O)N[C@@H]([C@@H](C)O)C(=O)N1)[C@@H](C)O)C(C)C)C(=O)N[C@@H](CC(C)C)C(=O)NC(C)(C)C(=O)N1CCC[C@H]1C(=O)N[C@H](C(=O)N[C@@H](CC(N)=O)C(=O)N[C@H](C(=O)NCC(=O)N[C@@H](CO)C(=O)N[C@@H](CC(N)=O)C(=O)N[C@H](C(=O)N[C@@H](Cc1ccc(O)cc1)C(N)=O)[C@@H](C)O)C(C)C)[C@@H](C)O

- EC50 (cAMP production) [1]: 0.341 nM
- Ratio (EC50 hCTR / EC50 hAMYR3) [1]: 130
- EC50 (cAMP production) [2]: 44.4 nM
B6: Peptide 92 (SEQ ID NO: 92) (peptide)
peptide: K([γGlu-γGlu-C18 diacid])CNTATCATQRLANFLRHSS[Aib]NFGPILPPTNVGS[Aib]TY-NH2
modifications: disulfide 2-7; N-terminus assumed
SMILES: CC[C@H](C)[C@H](NC(=O)[C@@H]1CCCN1C(=O)CNC(=O)[C@H](Cc1ccccc1)NC(=O)[C@H](CC(N)=O)NC(=O)C(C)(C)NC(=O)[C@H](CO)NC(=O)[C@H](CO)NC(=O)[C@H](Cc1c[nH]cn1)NC(=O)[C@H](CCCNC(=N)N)NC(=O)[C@H](CC(C)C)NC(=O)[C@H](Cc1ccccc1)NC(=O)[C@H](CC(N)=O)NC(=O)[C@H](C)NC(=O)[C@H](CC(C)C)NC(=O)[C@H](CCCNC(=N)N)NC(=O)[C@H](CCC(N)=O)NC(=O)[C@@H](NC(=O)[C@H](C)NC(=O)[C@@H]1CSSC[C@H](NC(=O)[C@@H](N)CCCCNC(=O)CC[C@H](NC(=O)CC[C@H](NC(=O)CCCCCCCCCCCCCCCCC(=O)O)C(=O)O)C(=O)O)C(=O)N[C@@H](CC(N)=O)C(=O)N[C@@H]([C@@H](C)O)C(=O)N[C@@H](C)C(=O)N[C@@H]([C@@H](C)O)C(=O)N1)[C@@H](C)O)C(=O)N[C@@H](CC(C)C)C(=O)N1CCC[C@H]1C(=O)N1CCC[C@H]1C(=O)N[C@H](C(=O)N[C@@H](CC(N)=O)C(=O)N[C@H](C(=O)NCC(=O)N[C@@H](CO)C(=O)NC(C)(C)C(=O)N[C@H](C(=O)N[C@@H](Cc1ccc(O)cc1)C(N)=O)[C@@H](C)O)C(C)C)[C@@H](C)O
